The values below are quoted from earlier work in publication PMC3433420.

Settings in all cases: cited from earlier work
Data set [1] deals with PIK3R2-NC (Homo sapiens) (UniProt O00459).
The target of data set [2] is ABL2 (Homo sapiens) (UniProt P42684).
Data set [3] has as its target PIK3R2-N (Homo sapiens) (UniProt O00459).
Data set [4] addresses PIK3R1-N (Homo sapiens) (UniProt P27986).
For data set [5], the target named is PIK3R3-NC (Homo sapiens) (UniProt Q92569).
Data set [6] deals with PIK3R1-NC (Homo sapiens) (UniProt P27986).
PIK3R1-NC (Homo sapiens), sequence (P27986 328-723): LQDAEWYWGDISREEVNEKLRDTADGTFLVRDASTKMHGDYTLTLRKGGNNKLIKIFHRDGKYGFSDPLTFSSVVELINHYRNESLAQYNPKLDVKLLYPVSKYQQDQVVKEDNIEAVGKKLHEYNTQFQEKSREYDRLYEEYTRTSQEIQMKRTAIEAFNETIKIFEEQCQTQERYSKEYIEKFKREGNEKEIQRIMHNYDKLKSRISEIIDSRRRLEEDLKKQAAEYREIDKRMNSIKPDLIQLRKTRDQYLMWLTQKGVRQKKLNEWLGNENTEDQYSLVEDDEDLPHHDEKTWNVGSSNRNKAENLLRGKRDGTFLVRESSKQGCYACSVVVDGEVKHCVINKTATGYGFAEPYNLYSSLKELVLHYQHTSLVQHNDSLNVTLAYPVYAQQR
Data set [7] addresses PIK3R3-N (Homo sapiens) (UniProt Q92569).
The target of data set [8] is RASA1-NC (Homo sapiens) (UniProt P20936).
RASA1-NC (Homo sapiens), sequence (P20936 176-446): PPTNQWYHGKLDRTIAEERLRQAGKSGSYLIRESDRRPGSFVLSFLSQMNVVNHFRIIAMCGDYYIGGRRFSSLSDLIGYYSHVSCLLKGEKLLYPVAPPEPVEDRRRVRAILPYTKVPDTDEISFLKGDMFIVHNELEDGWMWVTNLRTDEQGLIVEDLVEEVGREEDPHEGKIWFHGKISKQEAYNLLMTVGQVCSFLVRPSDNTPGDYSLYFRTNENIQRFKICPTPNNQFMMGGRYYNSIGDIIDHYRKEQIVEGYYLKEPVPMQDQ
Data set [9] addresses BLK (Homo sapiens) (UniProt P51451).
The target in data set [10] is PLCG2-NC (Homo sapiens) (UniProt P16885).
PLCG2-NC (Homo sapiens), sequence (P16885 527-740): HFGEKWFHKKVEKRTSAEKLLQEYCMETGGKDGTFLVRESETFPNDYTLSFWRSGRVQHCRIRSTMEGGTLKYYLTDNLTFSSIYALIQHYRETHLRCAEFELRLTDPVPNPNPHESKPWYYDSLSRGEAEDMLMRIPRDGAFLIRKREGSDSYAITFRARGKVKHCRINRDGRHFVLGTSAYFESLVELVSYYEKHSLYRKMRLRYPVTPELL
The target in data set [11] is GRB7 (Homo sapiens) (UniProt Q14451).
GRB7 (Homo sapiens), sequence (Q14451 426-532): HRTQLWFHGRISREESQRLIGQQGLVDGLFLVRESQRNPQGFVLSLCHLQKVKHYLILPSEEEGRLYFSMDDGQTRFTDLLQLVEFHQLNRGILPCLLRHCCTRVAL
For data set [12], the target named is PLCG2-N (Homo sapiens) (UniProt P16885).
Data set [13] concerns the target YES1 (Homo sapiens) (UniProt P07947).
Data set [14] concerns the target ABL2 (Homo sapiens) (UniProt P42684). The source holds these as a separate data set.
Data set [15] concerns the target SHC1-PTB (Homo sapiens) (UniProt P29353).
Data set [16] addresses HSH2D (Homo sapiens) (UniProt Q96JZ2).
Data set [17] addresses TNS4 (Homo sapiens) (UniProt Q8IZW8).
Data set [18] has as its target PIK3R3-NC (Homo sapiens) (UniProt Q92569). The source holds these as a separate data set.
In data set [19] the target is RASA1-NC (Homo sapiens) (UniProt P20936). The source holds these as a separate data set.
Data set [20] concerns the target RASA1-N (Homo sapiens) (UniProt P20936).
In data set [21] the target is PLCG2-NC (Homo sapiens) (UniProt P16885). The source holds these as a separate data set.
For data set [22], the target named is SLA (Homo sapiens) (UniProt Q13239).
SLA (Homo sapiens), sequence (Q13239 79-180): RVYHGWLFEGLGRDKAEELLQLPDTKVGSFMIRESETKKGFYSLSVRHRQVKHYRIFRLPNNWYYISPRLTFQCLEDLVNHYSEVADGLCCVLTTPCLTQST
Data set [23] concerns the target ABL2 (Homo sapiens) (UniProt P42684). The source holds these as a separate data set.
For data set [24], the target named is SHC1-PTB (Homo sapiens) (UniProt P29353). This is another data set of the same source.
SHC1-PTB (Homo sapiens), sequence (P29353 483-583): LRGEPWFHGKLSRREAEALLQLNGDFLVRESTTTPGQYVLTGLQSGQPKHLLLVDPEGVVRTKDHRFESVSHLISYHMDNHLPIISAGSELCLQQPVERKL
For data set [25], the target named is ABL1 (Homo sapiens) (UniProt P00519).
ABL1 (Homo sapiens), sequence (P00519 122-222): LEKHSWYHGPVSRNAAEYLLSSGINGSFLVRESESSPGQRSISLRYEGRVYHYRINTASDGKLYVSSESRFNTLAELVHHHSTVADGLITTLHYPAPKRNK
In data set [26] the target is ABL2 (Homo sapiens) (UniProt P42684). This is another data set of the same source.
Data set [27] has as its target NCK2 (Homo sapiens) (UniProt O43639).
Data set [28] addresses GRB2 (Homo sapiens) (UniProt P62993).
For data set [29], the target named is PIK3R3-NC (Homo sapiens) (UniProt Q92569). This is another data set of the same source.
In data set [30] the target is GRB10 (Homo sapiens) (UniProt Q13322).
In data set [31] the target is YES1 (Homo sapiens) (UniProt P07947). This is another data set of the same source.
YES1 (Homo sapiens), sequence (P07947 153-260): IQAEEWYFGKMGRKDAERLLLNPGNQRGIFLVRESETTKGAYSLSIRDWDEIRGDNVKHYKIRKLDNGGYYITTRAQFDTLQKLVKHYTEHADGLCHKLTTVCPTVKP
Data set [32] addresses RASA1-NC (Homo sapiens) (UniProt P20936). The source holds these as a separate data set.
In data set [33] the target is SHE (Homo sapiens) (UniProt Q5VZ18).
In data set [34] the target is NCK2 (Homo sapiens) (UniProt O43639). The source holds these as a separate data set.
NCK2 (Homo sapiens), sequence (O43639 280-380): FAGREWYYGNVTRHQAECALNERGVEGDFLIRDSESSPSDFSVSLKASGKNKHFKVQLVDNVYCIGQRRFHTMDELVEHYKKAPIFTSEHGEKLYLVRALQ
Data set [35] has as its target TENC1 (Homo sapiens) (UniProt Q63HR2).
Data set [36] has as its target RASA1-C (Homo sapiens) (UniProt P20936).
The target in data set [37] is PIK3R1-C (Homo sapiens) (UniProt P27986).
Data set [38] addresses VAV1 (Homo sapiens) (UniProt P15498).
The target in data set [39] is SH2D3C (Homo sapiens) (UniProt Q8N5H7).
SH2D3C (Homo sapiens), sequence (Q8N5H7 215-324): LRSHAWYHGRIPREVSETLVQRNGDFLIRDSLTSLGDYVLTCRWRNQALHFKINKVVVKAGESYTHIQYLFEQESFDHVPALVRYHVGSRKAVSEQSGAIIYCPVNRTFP
For data set [40], the target named is PIK3R1-NC (Homo sapiens) (UniProt P27986). The source holds these as a separate data set.
Data set [41] concerns the target SH2D1B (Homo sapiens) (UniProt O14796).
Data set [42] addresses ABL2 (Homo sapiens) (UniProt P42684). The source holds these as a separate data set.
For data set [43], the target named is SHC1-PTB (Homo sapiens) (UniProt P29353). The source holds these as a separate data set.
Data set [44] addresses SYK-NC (Homo sapiens) (UniProt P43405).
Data set [45] addresses VAV3 (Homo sapiens) (UniProt Q9UKW4).
Data set [46] deals with TNS3 (Homo sapiens) (UniProt Q68CZ2).
In data set [47] the target is SHB (Homo sapiens) (UniProt Q15464).
SHB (Homo sapiens), sequence (Q15464 405-509): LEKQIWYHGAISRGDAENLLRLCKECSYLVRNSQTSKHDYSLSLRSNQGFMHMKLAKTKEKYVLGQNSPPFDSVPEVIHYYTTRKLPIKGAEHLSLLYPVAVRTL
The target of data set [48] is SHF (Homo sapiens) (UniProt Q7M4L6).
SHF (Homo sapiens), sequence (Q7M4L6 318-423): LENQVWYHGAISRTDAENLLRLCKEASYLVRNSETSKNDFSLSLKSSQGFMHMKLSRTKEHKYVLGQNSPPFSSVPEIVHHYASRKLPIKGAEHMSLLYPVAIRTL
The target in data set [49] is VAV2 (Homo sapiens) (UniProt P52735).
VAV2 (Homo sapiens), sequence (P52735 668-772): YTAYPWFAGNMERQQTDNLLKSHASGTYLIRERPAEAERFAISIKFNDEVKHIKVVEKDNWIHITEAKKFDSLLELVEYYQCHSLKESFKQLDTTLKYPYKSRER
Data set [50] deals with ITK (Homo sapiens) (UniProt Q08881).
ITK (Homo sapiens), sequence (Q08881 234-343): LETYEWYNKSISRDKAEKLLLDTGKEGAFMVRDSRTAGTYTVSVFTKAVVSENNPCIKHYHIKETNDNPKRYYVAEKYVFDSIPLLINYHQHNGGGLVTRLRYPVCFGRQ
The target in data set [51] is GRB7 (Homo sapiens) (UniProt Q14451). This is another data set of the same source.
In data set [52] the target is SRC (Homo sapiens) (UniProt P12931).

Read-outs that look alike come from different tables or passages of the source.

ABL2 (Homo sapiens), sequence (P42684 168-268): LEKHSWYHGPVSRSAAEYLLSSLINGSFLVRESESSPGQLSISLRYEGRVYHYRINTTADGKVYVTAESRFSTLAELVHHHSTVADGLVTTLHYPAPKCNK
RASA1-N (Homo sapiens), sequence (P20936 176-446): as the sequence (P20936 176-446) above
RASA1-C (Homo sapiens), sequence (P20936 176-446): as above
SH2D1B (Homo sapiens), sequence (O14796 1-106): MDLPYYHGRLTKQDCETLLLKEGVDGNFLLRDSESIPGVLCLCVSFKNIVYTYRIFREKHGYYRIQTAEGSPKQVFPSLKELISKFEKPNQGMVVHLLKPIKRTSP
VAV1 (Homo sapiens), sequence (P15498 666-770): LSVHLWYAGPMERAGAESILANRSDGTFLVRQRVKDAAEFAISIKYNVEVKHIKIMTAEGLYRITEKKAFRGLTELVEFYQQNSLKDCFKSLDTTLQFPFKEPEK
BLK (Homo sapiens), sequence (P51451 119-225): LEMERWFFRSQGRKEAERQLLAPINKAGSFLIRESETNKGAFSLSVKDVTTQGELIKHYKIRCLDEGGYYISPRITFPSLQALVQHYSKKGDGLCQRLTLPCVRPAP
VAV3 (Homo sapiens), sequence (Q9UKW4 667-771): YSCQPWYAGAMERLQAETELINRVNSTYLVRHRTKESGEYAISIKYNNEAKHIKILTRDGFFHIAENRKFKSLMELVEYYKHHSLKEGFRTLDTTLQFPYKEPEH
PIK3R2-NC (Homo sapiens), sequence (O00459 325-721): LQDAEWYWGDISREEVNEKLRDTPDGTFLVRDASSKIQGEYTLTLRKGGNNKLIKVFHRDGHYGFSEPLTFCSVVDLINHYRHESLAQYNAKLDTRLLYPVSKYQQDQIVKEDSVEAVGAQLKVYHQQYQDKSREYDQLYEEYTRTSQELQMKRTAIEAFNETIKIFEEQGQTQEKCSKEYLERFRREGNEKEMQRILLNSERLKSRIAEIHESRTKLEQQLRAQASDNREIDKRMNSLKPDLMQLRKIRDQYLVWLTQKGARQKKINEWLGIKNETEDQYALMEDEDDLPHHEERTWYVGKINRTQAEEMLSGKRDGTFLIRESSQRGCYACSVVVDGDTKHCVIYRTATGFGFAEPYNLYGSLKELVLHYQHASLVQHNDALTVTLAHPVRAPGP
PIK3R2-N (Homo sapiens), sequence (O00459 325-721): as above
TNS4 (Homo sapiens), sequence (Q8IZW8 444-561): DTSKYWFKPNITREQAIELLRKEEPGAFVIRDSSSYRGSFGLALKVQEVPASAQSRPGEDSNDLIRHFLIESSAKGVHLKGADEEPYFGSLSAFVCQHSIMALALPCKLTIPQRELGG
TENC1 (Homo sapiens), sequence (Q63HR2 1135-1252): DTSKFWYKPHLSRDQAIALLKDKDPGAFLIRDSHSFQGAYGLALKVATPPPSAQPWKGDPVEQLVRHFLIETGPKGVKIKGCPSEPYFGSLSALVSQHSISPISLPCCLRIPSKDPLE

Take …pYTPMSGNQd: the apparent Kd (screen) in [1] was 461 nM; in data set [2], 659 nM; in [3], 201 nM; in data set [4] it was 541 nM; in [5], 576 nM; in [6], 1440 nM. The apparent Kd (screen) in data set [7] is 888 nM.
For the substance …pYHADGGKVd, the apparent Kd (screen) in data set [8] is 1400 nM; in data set [9], 718 nM; in data set [10], 1100 nM; in data set [11] it was 1200 nM; in data set [12] it was 647 nM; in [13] it was 1890 nM.
Take …pYWNHSLPPd: the apparent Kd (screen) in [14] is 34 nM; in data set [15] it was 509 nM.
Regarding …pYTHQSDVWd, the apparent Kd (screen) is 1130 nM in data set [16] and 299 nM in data set [17].
In the case of …pYMDVGSDL, the apparent Kd (screen) was 1510 nM in [18]; 2000 nM in data set [19]; 2000 nM in [20]; 2000 nM in [21]; 2000 nM in data set [22]; 1130 nM in [23].
With …pYHNQPLNPd, the apparent Kd (screen) in data set [24] was 321 nM; in data set [25] it was 523 nM; in data set [26], 62 nM; in data set [27], 2000 nM; in data set [28], 2000 nM.
With …pYLLNWCVQd, the apparent Kd (screen) in [29] was 1870 nM; in [30] it was 353 nM; in [31] it was 22 nM; in [32], 155 nM; in data set [33], 1380 nM; in data set [34], 195 nM. Further, the apparent Kd (screen) in [35] is 1140 nM; in data set [36] it was 1950 nM; in data set [37] it was 1850 nM; in data set [38], 373 nM; in [39], 52 nM; in data set [40], 1820 nM. The apparent Kd (screen) in data set [41] was 1600 nM; in data set [42] it was 201 nM; in data set [43] it was 1500 nM; in data set [44] it was 240 nM; in [45], 960 nM; in data set [46], 1890 nM. For the same substance, the apparent Kd (screen) was 276 nM in data set [47]; 1060 nM in [48]; 472 nM in [49]; 310 nM in data set [50]; 456 nM in [51]; 84 nM in data set [52].
